Series [1] in a line: Fluorescence correlation spectroscopy (FCS) compared to eGFP. Format: physicochemical. An excerpt:
(§1) The fluorescence emission of a disclosed fluorescent polypeptide having the amino acid sequence set forth in SEQ ID NO: 24 was compared to eGFP. eGFP is one of the brightest fluorescent proteins created to date. Both the disclosed fluorescent polypeptide having the amino acid sequence set forth in SEQ ID NO: 24 and eGFP were cloned into a modified pET-HT vector with a TEV-cleavable His-tag, expressed in BL21-DE3 E. coli, and purified via Ni-NTA resin. The concentration of each sample was normalized by the intensity of the respective absorption spectrum at 480 nm.
(§2) Fluorescence correlation spectroscopy (FCS) measurements (not shown) also indicated the protein having the sequence set forth in SEQ ID NO: 24 is monomeric and about 1.4 times as bright as eGFP. Additionally, as FIG. 6 clearly indicates, the peak emission intensity of the disclosed fluorescent polypeptide having the amino acid sequence set forth in SEQ ID NO: 24 is about 50% greater than that of eGFP.

The nature of series [2]: Fluorescence emission spectrum compared to eGFP. It is filed as physicochemical. Conditions: samples normalized by absorption at 480 nm.
From the text: as §1, §2

Series [3] in a line: Fluorescence intensity at different pH (Tris buffer). Format: physicochemical. Conditions: from pH 6.3 to pH 8.5. The source says:
A panel of fluorescent proteins was subjected to different pH conditions.

The next series relates to protein kinases. In words: Fluorescence intensity of recombinant protein incubated with protein kinases. It is filed as biochemical.
Series [4] has as its system PKA, PKC, MAPK, cdc2, Akt1, Src. Description: Western blot / SDS-PAGE analysis of phosphorylation. It is filed as biochemical. Here is the method:
Equal quantities of PhosFluor or eGFP incubated with either PKC or Src for the indicated times (in hours) were resolved on 10% SDS-PAGE gels and immunoblotted to antibodies that reveal total protein (a polyhistidine monoclonal antibody) or phospho-tyrosine. M designates the position of the monomeric form of fluorescent protein while P designates the position of phosphorylated forms of the protein that have undergone a motility shift due to increased negative charge.
Phosphorylation is known to increase the negative charge on proteins, which commonly results in an upward shift in the apparent molecular weight of the protein when resolved by SDS-PAGE (sodium dodecyl sulfate-polyacrylamide gel electrophoresis).

Series [5] has as its system protein kinases (PKA, PKC, Akt1, CamKII, MAPK). Description: Excitation and emission spectra after phosphorylation. Format: biochemical. The source says: FIG. 11 discloses that phosphorylation of PhosFluor alters its spectral properties. The excitation and emission spectra of PhosFluor and eGFP are depicted under control conditions (no kinase) and after phosphorylation by the indicated kinases. The excitation and emission spectra for eGFP are all superimposed under a single curve, while phosphorylation of PhosFluor alters both spectra compared to control conditions.
The excitation and emission spectra of PhosFluor were also obtained under control conditions and when phosphorylated (FIG. 10A). […] A marked shift in the emission spectrum of PhosFluor was observed when this molecule was incubated with PKA, PKC or Akt1 (FIG. 10B). […] These observations are highly significant because changes in the emission spectrum permits ratiometric measurements to be carried out, a highly robust method for quantitating spectral change in a fluorophore. Moreover, the effects reported here were carried out on the unmodified native PhosFluor protein. Enhanced effects would be expected if this protein is optimized for phosphorylation and/or expression as disclosed herein.

Another series concerns alkaline phosphatase. Conditions: incubated with alkaline phosphatase.

A value given as a limit tells only on which side of the number the result lay.

Experimental for alkaline phosphatase: B. Equal quantities of the recombinant PhosFluor or eGFP were subjected to phosphorylation by the indicated protein kinases or to dephosphorylation with alkaline phosphatase (Alk Phos). Fluorescence intensity (representing the change in emission of a part of the emission spectrum compared to the value at 0 hours) was measured over time during the reaction.
To determine if the fluorescence of PhosFluor could be modulated by phosphorylation, recombinant PhosFluor was incubated with different protein kinases and fluorescence was monitored (FIG. 9B).

B1: SEQ ID NO: 24: disclosed fluorescent polypeptide having the amino acid sequence set forth in SEQ ID NO: 24 (protein, listed as Lobophyllia hemprichii)
chain: MNVIKTDMKMKLRMVGAVNGHKFEIAGEGKGKPFEGKQTMNLEVLVGGPLPFAFDILTTVFDYGNRVFVKYPRDIADYFKQSFPEGFSWERSMAYEDGGICLATNNITLMKGDCFLYEIRFDGVNFPANSPVLQKKTV
Regarding B1, the oligomeric state entry in series [1] is reported as “monomeric”. For the same molecule, the “brightness relative to eGFP” value in series [1] (as bright as eGFP) is recorded as “about 1.4 times”. Besides, in series [2], the “peak emission intensity greater than that of eGFP” value is “about 50%”.

B2: PhosFluor: fluorescent protein having the amino acid sequence set forth in SEQ ID NO: 10, isolated from Scleractinia (protein)
chain: MSAHIKPNMKIKLRMEGDVNGHPFVITGEGSGKPYEGTHAIDLKVKEGGPLPFAYDILTAAFQYGNRAFTKYPADIPDYFKQSFPDGYCWERSMVFEDQGICVVKSVISLDKKEPDCFNYDIRFYGVNFPATGPVMKKKTVKWEPSTQTMYERDGVLVGDVNMALLLEGGGHHRCDFKSTYRAKGVVLNMPGNHYVDHRIEIIHHDKGYNSVTVHESAEARHCSLPSKAK
modifications: Scleractinia sp
In series [3], B2 displayed an increase in brightness greater than 100%. For the same molecule, the “fluorescence intensity when incubated with cdc2 and MAPK” value in the series on protein kinases (cdc2 and MAPK, data not shown) is given as “increased above background levels”. Also, in the series with protein kinases (no added protein kinase), the “fluorescence intensity in the absence of added protein kinase” value is on record as “increased to a lesser degree”. Further, the “fluorescence intensity when treated with various protein kinases” value in the series with protein kinases (recombinant protein incubated with kinases) is reported as “dramatic increase in fluorescence intensity”. Also, the “SDS-PAGE mobility shift upon phosphorylation by PKC” value in series [4] (PKC) is “multiple higher molecular weight species”. Also, in series [4] (PKC or Src, immunoblot), the “substrate for PKC and Src” value is listed as “avid substrate”. Further, the “phosphorylation of serine and threonine sites” value in series [4] (Western blot, by PKA, PKC, MAPK, cdc2 and Akt1) was “phosphorylated”. Moreover, the “excitation spectrum upon phosphorylation” value in series [5] (different protein kinases, including Akt1) is “dramatically altered”. The “emission spectrum upon phosphorylation” value in series [5] (incubated with PKA, PKC or Akt1) is “marked shift”. The “increase in fluorescence intensity over time with alkaline phosphatase” value in the series on alkaline phosphatase is given as “virtually abolished the increase in fluorescence intensity”.

The values are drawn from US8709981B2, “Isolated Australian coral reef fluorescent proteins and cell-based kinase or phosphatase platforms for cancer drug development” (priority 2009, dated 2014).
